# In article PMC10918641 (Biomaterials, 2023):
# B1: OVA-PEG: OVA conjugated to PEG via urethane linkage (conjugate, UniProt P01012 2-386, looked up)
# Ovalbumin: GSIGAASMEFCFDVFKELKVHHANENIFYCPIAIMSALAMVYLGAKDSTRTQINKVVRFDKLPGFGDSIEAQCGTSVNVHSSLRDILNQITKPNDVYSFSLASRLYAEERYPILPEYLQCVKELYRGGLEPINFQTAADQARELINSWVESQTNGIIRNVLQPSSVDSQTAMVLVNAIVFKGLWEKAFKDEDTQAMPFRVTEQESKPVQMMYQIGLFRVASMASEKMKILELPFASGTMSMLVLLPDEVSGLEQLESIINFEKLTEWTSSNVMEERKIKVYLPRMKMEEKYNLTSVLMAMGITDVFSSSANLSGISSAESLKISQAVHAAHAEINEAGREVVGSAEAGVDAASVSEEFRADHPFLFCIKHIATNAVLFFGRCVSP
# modifications: PEG 10K conjugate
# Tested on: C57BL/6J mice
# Conditions: mouse, in vivo
molecule,measurement,value
B1,PEG-specific IgM titer relative to Ex-PEG,~ 60 fold
same,anti-OVA IgG titer,lower titers of anti-OVA IgG than unmodified OVA
same,magnification of anti-OVA and anti-PEG responses by CFA/IFA emulsions,~ 2 fold
